Assay results: patent US7960115B2, “DNA binding protein” (Wright State University, priority 2001, dated 2011)

T1: DUE-B binding to dsDNA derived from the DUE sequence (Homo sapiens, UniProt Q8TEA8)
T1 construct: 6his (N); V5 (N); made in house; host or cells: baculovirus / SF9 insect cells
T1 sequence (Q8TEA8 1-209): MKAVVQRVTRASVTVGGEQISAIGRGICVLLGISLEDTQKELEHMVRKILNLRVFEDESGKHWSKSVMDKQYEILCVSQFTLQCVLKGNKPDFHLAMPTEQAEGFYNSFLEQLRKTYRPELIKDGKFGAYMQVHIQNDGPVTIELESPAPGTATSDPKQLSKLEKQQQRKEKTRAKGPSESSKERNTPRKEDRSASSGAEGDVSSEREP

B1: DUE-B: human DNA Unwinding Element binding protein (SEQ ID NO:2), baculovirus expressed, binds the c-myc replication origin DUE (protein, listed as Homo sapiens)
chain: T1 sequence (Q8TEA8 1-209)

Experiments:
[1] = molecular target: T1, DUE-B binding to dsDNA derived from the DUE sequence; test: Fluorescence polarization assay of DUE-B binding to dsDNA
From the text: Described herein is the first generation of a novel assay for determining the effects of molecules on the association of DUE-B with double stranded DNA (dsDNA). This assay uses fluorescence polarization to measure the interaction of DUE-B with dsDNA. This assay consists of 4 components: • a) a dsDNA derived from the DUE sequence:
• Both the sense and antisense strands are labeled with FITC at the 3′ end using a 6 carbon spacer. • b) Purified DUE-B. Human DUE-B tagged at the amino terminus with the 6his and V5 tags is synthesized in baculovirus and purified using Ni^2+-Sepharose™ chromatography. • c) Reaction buffer (1×): […] Tris HCl (pH 7.5), 800 mM NaCl, 10 mM EDTA, 100 mM β-mercaptoethanol, 1% (w/v) Tween-20™. • d) Fluorescence polarization plate reader (Tecan Polarion™ or other equivalent device)
A mastermix is prepared consisting of 1× reaction buffer, 2 nM labeled oligo and 0.125 or 0.250 ug DUE-B per 100 ul of mastermix. Compounds (in this case steroids) are added to the bottom of a 96 well plate. 100 ul of mastermix is added to each well and allowed to equilibrate for 30 sec. Fluorescence polarization is then measured.
In FIG. 23A, the effect of increasing concentrations of DUE-B on the polarization of dsDNA was assessed. As expected, polarization of the dsDNA becomes saturated as the DUE-B protein concentration increases. […]

[2] = tested on: DNA replication in Xenopus oocyte extract; test: Replication in Xenopus oocyte extracts; format: biochemical, Xenopus laevis
[3] = ATPase activity by thin layer chromatography; format: biochemical
Method: In FIG. 11, DUE-B expressed in baculovirus infected insect cells was chromotographed as in FIG. 8. To locate the eluted DUE-B, fractions were assayed by ELISA using DUE-B antibody or 6his antibody. ATPase activity was monitored by thin layer chromatography of alternate fractions incubated with gamma-^32P-ATP. […] In FIG. 12, time courses of ATPase activity were measured for three concentrations of DUE-B protein.
Purified DUE-B (200-1000 ng) expressed in bacteria or insect cells, or cell extracts from HeLa cells (˜500 ng) or Xenopus oocytes (˜500 ng), were chromatographed on a one-meter Sephacryl™ S-200 column. Protein elution was monitored by Western blot or by ELISA using antibodies to DUE-B or the his6 tag. ATPase activity was monitored by thin layer chromatography on PEI cellulose (Patrick, S. M., et al., Biochem. Biophys. Acta 1354:279-290, 1997). RNA was isolated using an RNAeasy kit (Qiagen) and DUE-B mRNA expression was monitored by Northern blotting of total RNA electrophoresed on denaturing formaldehyde/agarose gels using a DUE-B cDNA probe labeled with alpha-^32P-dCTP by random primer extension.

| Molecule | effect on the dsDNA binding of DUE-B on retest ([1]; retest in two different concentrations of DUE-B, FIG. 24B) | increase in polarization of dsDNA by DUE-B ([1]; steroid at 10 uM, FIG. 24A) | effect on DNA replication, time course ([2]; double stranded DNA preincubated in extract, DUE-B added with alpha-32P-dCTP, FIG. 18A) | effect on replication of single stranded DNA ([2]; oocyte extract, FIG. 20D) | effect on replication of sperm chromatin ([2]; preincubated 30' with the extract versus added simultaneously with sperm chromatin, FIG. 19) | effect on MCM7 loading (pre-RC formation) on chromatin ([2]; sperm chromatin, anti-MCM7 immunoblot, FIG. 20C) | ATPase activity ([3]; baculovirus expressed DUE-B, FIG. 12) | ATP hydrolyzed ([3]; present assay conditions) |
| --- | --- | --- | --- | --- | --- | --- | --- | --- |
| C[C@]12CC[C@@H]3c4ccc(O)cc4CC[C@H]3[C@@H]1CC(O)C2O (some centres unmarked) [Steroid E2850, 1,3,5(10)-estratrien-3,16,17-triol] | stimulatory effect of E2850 was duplicated | 100% |  |  |  |  |  |  |
| B1 |  |  | transiently inhibited DNA replication | does not inhibit replication of single stranded DNA | more effective at inhibiting replication | does not inhibit MCM7 loading | approximately 30 fmol gamma-32P-ATP hydrolyzed | > 0.5 fmol ATP per minute per fmol protein |
